This note sets out measurements from publication doi:10.1101/390674 (bioRxiv, 2018).

The target of this test is ribosomal protein uL16 (Escherichia coli (strain MRE600), UniProt P0ADY7 1-136). Put plainly: cryo-EM structure.

B1: initiation factor 2, γ-isoform (natural protein)
chain: not shown
Consider B1, for which the binding result is on record as “binds”.
